Test results from patent US10920201B2, “Rice EPSPS mutant, encoding gene and use thereof” (GEVOTO LLC, priority 2016, dated 2021).

Key:
[1] = system: EPSPS and C-P Lyase deficient E. coli; test: Growth of transformed E. coli on solid culture media containing glyphosate (FIG. 4); assay type: cell-based; settings: solid culture medium
Method: Besides, the glyphosate-resistant CP4-EPSPS gene mostly widely used currently in genetically modified crops in agriculture was further used in the present example as positive control, and E. coli respectively transformed by OsE gene (negative control group), OsEM gene (experiment group) and CP4-EPSPS gene (positive control group) were inoculated onto solid culture media respectively containing glyphosate of concentration of 0 mM, 1 mM, 50 mM, 100 mM, to observe growth states of bacterial colony in each group.

[2] = system: soybean plants; test: Glyphosate spray test on soybean plants transformed with OsEM gene; assay type: in vivo
From the text: In the present example, wild-type soybean plants were taken as controls, the positive soybean plants transformed with OsEM gene obtained in Example 4 were taken as experiment group, to verify glyphosate resistance of OsEM gene in plants. An experiment method is as follows:
1 The OsEM transformed positive soybean plants 10-20 cm tall and 3 wild-type soybean plants with a similar size were numbered and then randomly arranged in an experiment area (preventing leaves from overlapping).
2 The area with the plants was measured, and glyphosate was sprayed at a dosage of 1060 g/hectare (0.106 g/m^2).
3 Commercially available Roundup® 41% ammonium glyphosate was used. Amount was calculated according to the experiment area and dosage of 0.106 g/m^2, then diluted 20 times with water, and uniformly sprayed on the plants in the experiment area.
4 After leaf surfaces were dry, the plants in the experiment group and the control group were moved into a greenhouse.
5 Growth states of the plants were evaluated and recorded.
Afterwards, plants grew well were transplanted to larger pots to grow, and the glyphosate (having a concentration of […]) was sprayed for a second time on a 21st day. After 2 weeks, the growth states of the plants in each group were captured and recorded.

[3] = system: EDCE (E. coli DH5a with EPSPS gene and C-P Lyase gene being knocked out); test: Glyphosate resistance of transformed E. coli in liquid screening culture media (growth saturation index); assay type: cell-based; parameters: key to Growth Saturation Index: saturation index=0, no growth; saturation index=1, little growth; saturation index=2, half-saturated growth; saturation index=3, flourishing growth, but still having room to grow; saturation index=4, rapid growth, the bacteria having reached a highest (saturated) concentration in the culture media or the growth having reached the limit
From the text: 1.6 A double knockout E. coli was transformed (E. Coli DH5a with EPSPS gene and C-P Lyase gene being knocked out, named as EDCE, wherein for a preparation method thereof, reference can be made to a Chinese invention patent with the filing number CN2016103256926, entitled “Method for Screening Glyphosate-resistant Gene, EPSPS Mutant Gene, Defect Strain and Application Thereof”).
In the above, the screening culture media were culture media obtained by adding antibiotic, Spec (Spectinomycin), Gen (Gentamycin), Amp (Ampicillin) of certain concentrations and glyphosate of different concentrations, with M9 as a basic medium. Basic components of the M9 culture medium were as follows: Na2HPO4 13˜14 g/L, KH2PO4 5.7˜6.3 g/L, NaCl 0.9˜1.1 g/L, NH4Cl 1.8˜2.2 g/L, glucose 37˜43 g/L, MgSO4˜7H2O 48˜52 g/L, and CaCl2) 21˜23 g/L.
In the present example, EDCE transformed by the wild-type rice EPSPS gene (named as OsE gene, SEQ ID NO. 3) was taken as a control group, and the monoclonal resistant bacterium containing the OsEM gene (SEQ ID NO. 2) obtained in step 3.1 of Example 1 was taken as an experiment group, to detect the glyphosate resistance of the OsEM gene in bacteria.
The control group and the experiment group were respectively inoculated into culture media (screening culture media) containing glyphosate concentrations of 0 mM, 5 mM, 10 mM, 20 mM, 50 mM, 75 mM, and 100 mM, to observe growth states of bacterial colony in each group, denoted by growth saturation index (saturation index=0, no growth; saturation index=1, little growth; saturation index=2, half-saturated growth; saturation index=3, flourishing growth, but still having room to grow; saturation index=4, rapid growth, the bacteria having reached a highest (saturated) concentration in the culture media or the growth having reached the limit).

[4] = 7th day after first glyphosate spray, 1060 g/hectare (0.106 g/m^2)

B1: OsEM: Rice EPSPS mutant gene (SEQ ID NO. 2) encoding 5-enolpyruvylshikimate-3-phosphate synthase mutant (SEQ ID NO. 1), 8 amino acid mutations (protein)
chain: MASNAAAAAAKAEEIVLQPIREISGAVQLPGSKSLSNRILLLSALSEGTTVVDNLLNSEDVHYMLEALKGLGLSVEADKVAKRAVVVGCGGKFPVEKDAKEEVQLFLGNAATAMRSLTAAVTAAGGNATYVLDGVPRMRERPIGDLVVGLKRLGADVDCFLGTECPPVRVKGIGGLPGGKVKLSGSISSQYLSALLMAAPLALGDVEIEIIDRLISIPYVEMTLRLMERFGVKAEHSDSWDRFYIKGGQQYESPGNAYVEGDASSASYFLAGAAITGGTVTVQGCGTTSLQGDVKFAEVLEMMGAKVTWTDTSVTVTGPPREPYGKKHLKAVDVNMNKMPDAAMTLAVVALFADGPTAIRDVASWRVKETERMVAIRTELTKLGASVEEGPDYCIITPPEKLNITAIDTYDDHRMAMAFSLAACADVPVTIRDPGCTRKTFPNYFDVLSTFVRN
Q: B1 was tested. Which “growth state of bacterial colony” value ([1]; 0 mM glyphosate) did it give?
A: Its value is “could grow normally”.

Q: What about the “growth state of bacterial colony” value ([1]; 1 mM glyphosate) of the same molecule?
A: The value was “could grow normally”.

Q: And the “growth state of bacterial colony” value ([1]; 50 mM glyphosate)?
A: The value was “could grow normally”.

Q: And the “growth state of bacterial colony” value ([1]; 100 mM glyphosate)?
A: Its value is “could grow normally”.

Q: What about the “growth state of plants after second glyphosate spray (FIG. 7)” value ([2]; 1.06 g/m^2 glyphosate sprayed on 21st day, recorded after 2 weeks) of the same molecule?
A: Its value is “could grow continuously”.

Q: And the “number of plants with Growth State + (low glyphosate resistance)” value [2, 4]?
A: The value was 3.

Q: And the “number of plants with Growth State ++ (medium glyphosate resistance)” value [2, 4]?
A: Its value is 1.

Q: What about the “number of plants with Growth State +++ (high glyphosate resistance)” value [2, 4] of the same molecule?
A: The value was 4.

Q: What about the “number of plants with Growth State − (no glyphosate resistance)” value [2, 4] of the same molecule?
A: Its value is 2.

Q: And the “glyphosate concentration to which resistance is endowed” value ([2]; soybean plants transformed by the gene)?
A: Its value is 1.06 g/m^2.

Q: And the “Growth Saturation Index” value ([3]; 0 mM glyphosate in culture medium)?
A: Its value is 4.

Q: And the “Growth Saturation Index” value ([3]; 5 mM glyphosate in culture medium)?
A: The value was 4.

Q: What about the “Growth Saturation Index” value ([3]; 10 mM glyphosate in culture medium) of the same molecule?
A: The value was 4.

Q: What about the “Growth Saturation Index” value ([3]; 20 mM glyphosate in culture medium) of the same molecule?
A: Its value is 4.

Q: What about the “Growth Saturation Index” value ([3]; 50 mM glyphosate in culture medium) of the same molecule?
A: Its value is 4.

Q: And the “Growth Saturation Index” value ([3]; 75 mM glyphosate in culture medium)?
A: The value was 4.

Q: What about the “Growth Saturation Index” value ([3]; 100 mM glyphosate in culture medium) of the same molecule?
A: Its value is 4.

Q: And the “glyphosate concentration to which resistance is endowed” value ([3]; E. coli transformed by the gene)?
A: Its value is 100 mM.
